Results reported in the supplement of paper PMC10567573.
± gives the standard deviation.

Assay: protein stability index of a GFP-peptide fusion (GPS, HEK-293T) (PSI 1-6); higher = more stable
Conditions: c terminus: a fixed tail appended
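Further: 24-mer peptide tiles fused after GFP, lentivirally expressed, FACS-sorted into six equal bins by GFP/DsRed ratio, decoded by Illumina sequencing, PSI is the read-weighted mean bin number.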

Sequence | protein stability index (treatment: DMSO) | protein stability index (treatment: MLN4924 1 uM, 8 h)
SISASSARFVSSGSGGGYGGGMRV [KRT15] | 3.02 ± 0.22 | 3.55 ± 0.23
EHTGEVRTARALLDRDALKQSLVV [PCDHGA10] | 3.23 ± 0.2 | 3.3 ± 0.26
SGESGLRRRGSDPASGEVEASQLR [TMEM40] | 5.56 ± 0.11 | 5.51 ± 0.22
LPLETARESPSFKLEPMETERSPG [ZNF263] | 5.24 ± 0.13 | 5.36 ± 0.13
CFVLGFFYPVMLILFLVIGGMLNF [SOAT2] | 3.27 ± 0.52 | 3.53 ± 0.61
QPLEGGTPNSAGGPGAHILRRKSP [ADAMTS4] | 5.34 ± 0.43 | 5.37 ± 0.17
EIDSVPKTQSELASESEHIPKPQS [MIA2] | 5.42 ± 0.26 | 5.49 ± 0.2
TIKSHLKSFSMANGMNAVMMHGRS [RAB40C] | 2.54 ± 0.14 | 2.6 ± 0.23
PVPVIVSNFNYFYHRETEGEEQSQ [KCNA3] | 3.81 ± 0.34 | 4.15 ± 0.28
PGAPPGRDLASVPPELTASRQSFR [DVL3] | 4.7 ± 0.23 | 4.84 ± 0.12
LRDPLTSLSHTELEAAEVILEHAH [FCHSD1] | 4.29 ± 0.25 | 4.44 ± 0.32
EFTIRDLQRLGELQSELAGVADFS [INTS4] | 3.3 ± 0.17 | 3.42 ± 0.48
KATASEAVDCKWYIRAPPRSKIYL [NETO1] | 2.23 ± 0.54 | 2.25 ± 0.32
AVCLLGVGTMVGADILAGREDNSG [SLC35F2] | 3.17 ± 0.5 | 3.11 ± 0.2
LYAVGGHDGSSYLNSVERYDPKTN [KLHL20] | 3.72 ± 0.22 | 3.79 ± 0.23
VIKMLVNDNKVLRYLAVLESPIPE [EFHC1] | 2.32 ± 0.31 | –
ENQRLFEMLGRKCLTLATAVVQLY [WAS] | 2.26 ± 0.21 | 2.44 ± 0.33
FSDSRSNNDDDEDEDDEDEDEDED [TAF7L] | 5.7 ± 0.19 | 5.58 ± 0.41
SYFDRGAKGGSRLCTPEGWFSCQG [DFFB] | 2.46 ± 0.14 | 2.6 ± 0.18
SAAGPPLSEDDKLQGAASHVPEGF [EHMT1] | 5.31 ± 0.3 | 5.21 ± 0.11
DSPENGADSFESSDSLLQSWNSQS [ETS2] | 5.11 ± 0.16 | 5.14 ± 0.15
VNPWKREVKLLLSSETPIEGKNMS [APMAP] | 3.44 ± 0.25 | 3.62 ± 0.42
VFRVSSDKLALCHLELTRKLQDLI [FCHO1] | 2.28 ± 0.46 | 2.03 ± 0.61

Sequence | protein stability index (treatment: DMSO) | protein stability index (treatment: MLN4924 1 uM, 8 h)
SAHPVEVFSFDLHEPLSKERVEAF [TMEM175] | 3.82 ± 0.19 | 3.82 ± 0.3
GFTPDRLSSSCCHTVPDFHLSSPA [PLK2] | 3.02 ± 0.22 | 3.15 ± 0.16
YCLLSDHGCEYSCVNMDRSFACQC [MATN2] | 2.81 ± 0.54 | 2.95 ± 0.59
VAAETGHTSTARLLLHRGAGKEAM [RIPK4] | 3.6 ± 0.28 | 3.46 ± 0.13
NMLFQQNKDGIGEICLWGRHIFMG [ACSBG2] | 2.3 ± 0.33 | 2.3 ± 0.54
QNQEYKMLLDIKTRLEQEIATYRS [KRT15] | 3.31 ± 0.18 | 3.46 ± 0.37
RTPEPLEEFPKREDQEGSPPETSL [MYBL2] | 5.4 ± 0.36 | 5.56 ± 0.23
FLCAAGDAGEESRVQVLKNEVRRG [TIAF1] | 4.18 ± 0.31 | 4.22 ± 0.11
PEELRKVFITYSMDTAMEVVKFVN [TRAF3IP2] | 2.24 ± 0.46 | 2.08 ± 0.37
GIMCLKRLNYDRKELEKRREESQH [PPFIA4] | 3.69 ± 0.31 | 3.62 ± 0.4
KDKRRIVSSSQDGKVIVWDSFTTN [GNB5] | 3.63 ± 0.049 | 3.8 ± 0.19
FCLQKLISLHPFNPWNWGKLAEAY [C8orf76] | 2.85 ± 0.49 | 2.82 ± 1.3
VGVDRAFPLKPMVHRKSCSTGEAG [ZC2HC1C] | 3.74 ± 0.18 | 4.2 ± 0.16
RGQARRLAPNFRWAIPNRQINDGM [BEX3] | 3.1 ± 0.24 | 3.03 ± 0.47
GAELHLQPLEGGTPNSAGGPGAHI [ADAMTS4] | 4.51 ± 1.1 | 4.74 ± 0.36
AFYKEQLARLEERSSEFYRVTTEQ [CHCHD3] | 3.29 ± 0.12 | 3.38 ± 0.34
LAELQEQLKAVHEQLAALSQAPVN [BRD3] | 4.2 ± 0.3 | 4.24 ± 0.43
PPASARRLSVPRDSACDESSCIPK [IRX6] | 5.33 ± 0.16 | 5.31 ± 0.14
NPNSSSGKGSGGNAGSYIPSYTSW [DLX1] | 3.44 ± 0.14 | 3.43 ± 0.4
TKVGSFMIRESETKKGFYSLSVRH [SLA] | 2.68 ± 0.37 | 2.66 ± 0.69
TLPKSLSLPTTAPSNSSSLTLSGI [MYBL2] | 3.87 ± 0.12 | 3.83 ± 0.28
SDSPDAADSTSFDVQLGDIILTAT [PPTC7] | 3.98 ± 0.27 | 4.01 ± 0.18
